Test results as given in patent publication US20190328865A1.

Target: dipeptidyl peptidase 4 (DPP4), cellular receptor on Huh-7 cells (human) (UniProt P27487)
Assay: cell-based or functional assay

UniProt P27487, sequence (P27487 whole entry): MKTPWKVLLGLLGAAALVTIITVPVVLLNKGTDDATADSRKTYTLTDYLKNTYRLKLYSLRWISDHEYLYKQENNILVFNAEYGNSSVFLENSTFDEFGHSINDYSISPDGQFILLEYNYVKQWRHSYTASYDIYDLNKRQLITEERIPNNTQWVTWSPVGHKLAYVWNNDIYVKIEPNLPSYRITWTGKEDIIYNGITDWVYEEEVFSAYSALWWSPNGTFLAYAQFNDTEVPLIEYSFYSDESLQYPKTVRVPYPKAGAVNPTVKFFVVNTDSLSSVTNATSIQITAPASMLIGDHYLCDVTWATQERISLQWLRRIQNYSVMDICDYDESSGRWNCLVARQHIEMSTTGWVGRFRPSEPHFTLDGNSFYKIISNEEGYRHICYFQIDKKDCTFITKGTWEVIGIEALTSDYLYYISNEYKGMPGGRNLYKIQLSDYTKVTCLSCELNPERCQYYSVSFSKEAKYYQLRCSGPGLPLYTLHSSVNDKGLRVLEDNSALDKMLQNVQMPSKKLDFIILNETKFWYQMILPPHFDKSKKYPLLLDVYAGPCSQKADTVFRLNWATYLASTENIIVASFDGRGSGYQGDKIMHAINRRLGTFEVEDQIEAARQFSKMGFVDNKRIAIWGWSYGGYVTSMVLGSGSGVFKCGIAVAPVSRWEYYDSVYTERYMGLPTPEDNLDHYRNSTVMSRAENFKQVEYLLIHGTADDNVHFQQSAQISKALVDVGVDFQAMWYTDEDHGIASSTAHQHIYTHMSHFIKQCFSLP

S377-588-Fc (residues 377-588 of MERS-CoV S protein fused to Fc of human IgG) (Fc fusion)
inhibition of CPE formation caused by MERS-CoV infection in Calu-3 cells: 3 µg/mL
